± gives the standard deviation of the averaged measurements.
Assay: total protein half-life in vivo (active degradation + dilution); higher = more stable protein
[1] = E. coli NCM3722 delta-clpP delta-lon delta-hslV, growth: N-lim chemostat, doubling time 6 h
[2] = E. coli NCM3722 delta-clpP, growth: N-lim chemostat, doubling time 6 h
[3] = E. coli NCM3722 delta-hslV, growth: N-lim chemostat, doubling time 6 h
[4] = E. coli NCM3722 delta-lon, growth: N-lim chemostat, doubling time 6 h
[5] = E. coli NCM3722 delta-smpB, growth: N-lim chemostat, doubling time 6 h
[6] = wild type E. coli NCM3722, growth: C-lim chemostat, doubling time 3 h
[7] = wild type E. coli NCM3722, growth: C-lim chemostat, doubling time 6 h
[8] = wild type E. coli NCM3722, growth: C-lim chemostat, doubling time 12 h
[9] = wild type E. coli NCM3722, growth: N-lim chemostat, doubling time 6 h
[10] = wild type E. coli NCM3722, growth: N-lim chemostat, doubling time 12 h
[11] = wild type E. coli NCM3722, growth: P-lim chemostat, doubling time 6 h
[12] = wild type E. coli NCM3722, growth: P-lim chemostat, doubling time 12 h

## MKLAHLGRQALMGVMAVALVAGMSVKSFADEGLLNKVKERGTLLVGLEGTYPPFSFQGDDGKLTGFEVEFAQQLAKHLGVEASLKPTKWDGMLASLDSKRIDVVINQVTISDERKKKYDFSTPYTISGIQALVKKGNEGTIKTADDLKGKKVGVGLGTNYEEWLRQNVQGVDVRTYDDDPTKYQDLRVGRIDAILVDRLAALDLVKKTNDTLAVTGEAFSRQESGVALRKGNEDLLKAVNDAIAEMQKDGTLQALSEKWFGADVTK [P0AEM9]
[1]
  total protein half-life in vivo: 6.22 ± 0.52 h
[2]
  total protein half-life in vivo: 5.74 ± 0.64 h
[3]
  total protein half-life in vivo: 6.87 ± 0.34 h
[4]
  total protein half-life in vivo: 7.33 ± 0.21 h
[5]
  total protein half-life in vivo: 6.54 ± 0.16 h
[6]
  total protein half-life in vivo: 3.47 ± 0.28 h
[7]
  total protein half-life in vivo: 6.27 ± 0.63 h
[8]
  total protein half-life in vivo: 12.5 ± 2.1 h
[9]
  total protein half-life in vivo: 5.71 ± 0.61 h
[10]
  total protein half-life in vivo: 14.1 ± 1.8 h
[11]
  total protein half-life in vivo: 5.95 ± 0.58 h
[12]
  total protein half-life in vivo: 14.49 ± 0.065 h

## MSLKEKTQSLFANAFGYPATHTIQAPGRVNLIGEHTDYNDGFVLPCAIDYQTVISCAPRDDRKVRVMAADYENQLDEFSLDAPIVAHENYQWANYVRGVVKHLQLRNNSFGGVDMVISGNVPQGAGLSSSASLEVAVGTVLQQLYHLPLDGAQIALNGQEAENQFVGCNCGIMDQLISALGKKDHALLIDCRSLGTKAVSMPKGVAVVIINSNFKRTLVGSEYNTRREQCETGARFFQQPALRDVTIEEFNAVAHELDPIVAKRVRHILTENARTVEAASALEQGDLKRMGELMAESHASMRDDFEITVPQIDTLVEIVKAVIGDKGGVRMTGGGFGGCIVALIPEELVPAVQQAVAEQYEAKTGIKETFYVCKPSQGAGQC [P0A6T3]
[1]
  total protein half-life in vivo: 5.59 ± 2 h
[2]
  total protein half-life in vivo: 6.35 h
[3]
  total protein half-life in vivo: 5.09 ± 1.2 h
[4]
  total protein half-life in vivo: 5.29 ± 0.75 h
[5]
  total protein half-life in vivo: 4.573 ± 0.04 h
[6]
  total protein half-life in vivo: 3.22 ± 0.53 h
[7]
  total protein half-life in vivo: 5.71 ± 0.33 h
[8]
  total protein half-life in vivo: 12.7 ± 2 h
[9]
  total protein half-life in vivo: 4.53 ± 0.13 h
[10]
  total protein half-life in vivo: 7.14 ± 0.81 h
[11]
  total protein half-life in vivo: 6.11 ± 0.1 h
[12]
  total protein half-life in vivo: 11.9 ± 0.71 h

## MAFSQAVSGLNAAATNLDVIGNNIANSATYGFKSGTASFADMFAGSKVGLGVKVAGITQDFTDGTTTNTGRGLDVAISQNGFFRLVDSNGSVFYSRNGQFKLDENRNLVNMQGLQLTGYPATGTPPTIQQGANPTNISIPNTLMAAKTTTTASMQINLNSSDPLPTVTPFSASNADSYNKKGSVTVFDSQGNAHDMSVYFVKTGDNNWQVYTQDSSDPNSIAKTATTLEFNANGTLVDGAMANNIATGAINGAEPATFSLSFLNSMQQNTGANNIVATTQNGYKPGDLVSYQINDDGTVVGNYSNEQTQLLGQIVLANFANNEGLASEGDNVWSATQSSGVALLGTAGTGNFGTLTNGALEASNVDLSKELVNMIVAQRNYQSNAQTIKTQDQILNTLVNLR
[1]
  total protein half-life in vivo: 3.24 ± 0.9 h
[2]
  total protein half-life in vivo: 7.78 h
[5]
  total protein half-life in vivo: > 8 h
[6]
  total protein half-life in vivo: 1.2 ± 0.066 h
[7]
  total protein half-life in vivo: 2.23 ± 0.38 h
[8]
  total protein half-life in vivo: 3.51 ± 0.74 h

## MTQTLSQLENSGAFIERHIGPDAAQQQEMLNAVGAQSLNALTGQIVPKDIQLATPPQVGAPATEYAALAELKAIASRNKRFTSYIGMGYTAVQLPPVILRNMLENPGWYTAYTPYQPEVSQGRLEALLNFQQVTLDLTGLDMASASLLDEATAAAEAMAMAKRVSKLKNANRFFVASDVHPQTLDVVRTRAETFGFEVIVDDAQKVLDHQDVFGVLLQQVGTTGEIHDYTALISELKSRKIVVSVAADIMALVLLTAPGKQGADIVFGSAQRFGVPMGYGGPHAAFFAAKDEYKRSMPGRIIGVSKDAAGNTALRMAMQTREQHIRREKANSNICTSQVLLANIASLYAVYHGPVGLKRIANRIHRLTDILAAGLQQKGLKLRHAHYFDTLCVEVADKAGVLTRAEAAEINLRSDILNAVGITLDETTTRENVMQLFNVLLGDNHGLDIDTLDKDVAHDSRSIQPAMLRDDEILTHPVFNRYHSETEMMRYMHSLERKDLALNQAMIPLGSCTMKLNAAAEMIPITWPEFAELHPFCPPEQAEGYQQMIAQLADWLVKLTGYDAVCMQPNSGAQGEYAGLLAIRHYHESRNEGHRDICLIPASAHGTNPASAHMAGMQVVVVACDKNGNIDLTDLRAKAEQAGDNLSCIMVTYPSTHGVYEETIREVCEVVHQFGGQVYLDGANMNAQVGITSPGFIGADVSHLNLHKTFCIPHGGGGPGMGPIGVKAHLAPFVPGHSVVQIEGMLTRQGAVSAAPFGSASILPISWMYIRMMGAEGLKKASQVAILNANYIASRLQDAFPVLYTGRDGRVAHECILDIRPLKEETGISELDIAKRLIDYGFHAPTMSFPVAGTLMVEPTESESKVELDRFIDAMLAIRAEIDQVKAGVWPLEDNPLVNAPHIQSELVAEWAHPYSREVAVFPAGVADKYWPTVKRLDDVYGDRNLFCSCVPISEYQ
[1]
  total protein half-life in vivo: 4.44 ± 0.46 h
[2]
  total protein half-life in vivo: 3.621 ± 0.013 h
[3]
  total protein half-life in vivo: 4.09 ± 0.11 h
[4]
  total protein half-life in vivo: 4 ± 0.3 h
[5]
  total protein half-life in vivo: 3.81 ± 0.18 h
[6]
  total protein half-life in vivo: 3.022 ± 0.029 h
[7]
  total protein half-life in vivo: 4.95 ± 0.14 h
[8]
  total protein half-life in vivo: 8.75 ± 0.28 h
[9]
  total protein half-life in vivo: 4.02 ± 0.13 h
[10]
  total protein half-life in vivo: 6.79 ± 0.18 h
[11]
  total protein half-life in vivo: 6.117 ± 0.035 h
[12]
  total protein half-life in vivo: 11 ± 0.55 h

## MKKATCLTDDQRWQSVLARDPNADGEFVFAVRTTGIFCRPSCRARHALRENVSFYANASEALAAGFRPCKRCQPEKANAQQHRLDKITHACRLLEQETPVTLEALADQVAMSPFHLHRLFKATTGMTPKAWQQAWRARRLRESLAKGESVTTSILNAGFPDSSSYYRKADETLGMTAKQFRHGGENLAVRYALADCELGRCLVAESERGICAILLGDDDATLISELQQMFPAADNAPADLMFQQHVREVIASLNQRDTPLTLPLDIRGTAFQQQVWQALRTIPCGETVSYQQLANAIGKPKAVRAVASACAANKLAIIIPCHRVVRGDGTLSGYRWGVSRKAQLLRREAENEER
[2]
  total protein half-life in vivo: 3.82 ± 0.28 h
[3]
  total protein half-life in vivo: 2.03 h
[4]
  total protein half-life in vivo: 3.25 ± 0.14 h
[5]
  total protein half-life in vivo: 2.46 h
[7]
  total protein half-life in vivo: 3.38 h
[8]
  total protein half-life in vivo: 4.07 h
[9]
  total protein half-life in vivo: 2.22 h
[10]
  total protein half-life in vivo: 3.48 h
[11]
  total protein half-life in vivo: 1.81 h
[12]
  total protein half-life in vivo: 3.5 ± 0.11 h

## MNIVDQQTFRDAMSCMGAAVNIITTDGPAGRAGFTASAVCSVTDTPPTLLVCLNRGASVWPAFNENRTLCVNTLSAGQEPLSNLFGGKTPMEHRFAAARWQTGVTGCPQLEEALVSFDCRISQVVSVGTHDILFCAIEAIHRHTTPYGLVWFDRSYHALMRPAC
[1]
  total protein half-life in vivo: 5.375 ± 0.033 h
[2]
  total protein half-life in vivo: 0.819 ± 0.077 h
[3]
  total protein half-life in vivo: 0.419 h
[4]
  total protein half-life in vivo: 0.406 h
[5]
  total protein half-life in vivo: 0.684 ± 0.19 h
[9]
  total protein half-life in vivo: 0.452 h
[10]
  total protein half-life in vivo: 1.16 h

## MLQNPIHLRLERLESWQHVTFMACLCERMYPNYAMFCQQTGFGDGQIYRRILDLIWETLTVKDAKVNFDSQLEKFEEAIPSADDFDLYGVYPAIDACVALSELVHSRLSGETLEHAVEVSKTSITTVAMLEMTQAGREMSDEELKENPAVEQEWDIQWEIFRLLAECEERDIELIKGLRADLREAGESNIGIIFQQ
[1]
  total protein half-life in vivo: 5.09 ± 0.47 h
[2]
  total protein half-life in vivo: 5.16 ± 0.66 h
[3]
  total protein half-life in vivo: 4.79 ± 0.12 h
[4]
  total protein half-life in vivo: 5.23 ± 0.55 h
[5]
  total protein half-life in vivo: 4.12 ± 1.1 h
[6]
  total protein half-life in vivo: 3.1 ± 0.088 h
[7]
  total protein half-life in vivo: 5.93 ± 0.21 h
[9]
  total protein half-life in vivo: 4.84 ± 0.12 h
[10]
  total protein half-life in vivo: 8.11 ± 0.86 h
[11]
  total protein half-life in vivo: 6.28 ± 0.52 h
[12]
  total protein half-life in vivo: 13.7 ± 1.8 h

Reference: the supplement of paper PMC11246515
